In article PMC7910490, “The biosynthetic pathway of potato solanidanes diverged from that of spirosolanes due to evolution of a dioxygenase” (Nature Communications, 2021):

Columns and labels:
[1] = substrate: C[C@H]1CC[C@]2(NC1)O[C@H]1C[C@H]3[C@@H]4CC=C5C[C@@H](O[C@@H]6O[C@H](CO)[C@H](O)[C@H](O[C@@H]7O[C@H](CO)[C@@H](O)[C@H](O)[C@H]7O)[C@H]6O[C@@H]6O[C@@H](C)[C@H](O)[C@@H](O)[C@H]6O)CC[C@]5(C)[C@H]4CC[C@]3(C)[C@H]1[C@@H]2C; experiment: purified protein, by the assay type; parameters: LC-MS of product formation by purified recombinant enzyme; Michaelis-Menten nonlinear regression (ANEMONA); details: pH 7.2
Experimental: (§1) An in vitro enzyme activity assay was performed using 100 μl of reaction mixture containing 100 mM Bis–Tris–HCl (pH 7.2), 5 mM 2-oxoglutarate, 10 mM sodium ascorbate, 0.2 mM FeSO4, 25 μM substrate, and 1 μg purified recombinant proteins as the enzyme. The reaction was initiated by the addition of the enzyme and was carried out at 30 °C for 30 min. The reaction was then stopped by incubation for 2 min at 90 °C. After centrifugation, 20 μl of supernatant was diluted with 180 μl methanol and filtered through 0.2-μm nylon membrane filters (Acrodisc, Waters). An aliquot (2 μl) was analyzed using LC–MS, as described in “Feeding experiments” above. We determined the kinetic parameters of the recombinant DPS and St7070 in triplicate assays. The assays were conducted as described above, with minor modifications. Briefly, 0.1 μg purified DPS protein or 0.02 μg purified St7070 were used. […] A 20 μl sample of assay mixture was diluted with 180 μl methanol and filtered through 0.2-μm nylon membrane filters (Acrodisc, Waters). An aliquot (2 μl) was analyzed using LC–MS, as described above. The kinetic parameters were determined by nonlinear regression, using the ANEMONA program. Supplementary Fig. 21| Enzyme kinetics of purified recombinant DPS and St7070 with a-solamarine and (22S,25S)-spirosol-5-en-3b-ol. […]

[2] = substrate: C[C@H]1CC[C@]2(NC1)O[C@H]1C[C@H]3[C@@H]4CC=C5C[C@@H](O)CC[C@]5(C)[C@H]4CC[C@]3(C)[C@H]1[C@@H]2C; experiment: purified protein, by the assay type; parameters: LC-MS of product formation by purified recombinant enzyme; Michaelis-Menten nonlinear regression (ANEMONA); details: pH 7.2
Experimental: as §1

B1: St7070 (Solanum tuberosum) (protein)
chain: MASTKVTIPTIDFFNSELKPNTPQWELTKVQVFEALQEFGCFEAIYNKVPNEIREGMFDTLKEVFDFPLSKLIEYREKPFHIYDGQIPSVPLFGSVYSADLVLPNSVETFANTFWSHGNPNFSNVAKSYFKQLMELNGMVEKMVLESLGLKNYIDEFLNSNVYMSRFTNYKVIKGENENKSGLPSHTDSSYLTIIKQNQNGLQVLYKNGEWIELNHTSPNSYIVLSADALMAWTNDRLTSAQHRVVTTGDKDRFSVQLFSLVNPDYTLKVPKELVDEEHPLMYKPFKMPEYNKYLMLGAKNGLGVKNYCGL
**Q.** B1 was tested. Which Km [1] did it give?
**A.** 1.7 ± 0.24 µM

**Q.** And the Km [2]?
**A.** 19.6 ± 0.056 µM
